In PMC2172161 (The Journal of Cell Biology, 2004):
Where two headings read alike, the source gives them in different places. Blank lines part the entries; values can stand above or below the molecule they belong to.

B1: Cdc12-His6 (natural protein)
chain: MSAATATAAPVPPPVGISNLPNQRYKIVNEEGGTFTVMLCGESGLGKTTFINTLFQTVLKRADGQQHRQEPIRKTVEIDITRALLEEKHFELRVNVIDTPGFGDNVNNNKAWQPLVDFIDDQHDSYMRQEQQPYRTKKFDLRVHAVLYFIRPTGHGLKPIDIETMKRLSTRANLIPVIAKADTLTAQELQQFKSRIRQVIEAQEIRIFTPPLDADSKEDAKSGSNPDSAAVEHARQLIEAMPFAIVGSEKKFDNGQGTQVVARKYPWGLVEIENDSHCDFRKLRALLLRTYLLDLISTTQEMHYETYRRLRLEGHENTGEGNEDFTLPAIAPARKLSHNPRYKEEENALKKYFTDQVKAEEQRFRQWEQNIVNERIRLNGDLEEIQGKVKKLEEQVKSLQVKKSHLK
B3: Cdc12(T48N)-His6 (natural protein)
chain: MSAATATAAPVPPPVGISNLPNQRYKIVNEEGGTFTVMLCGESGLGKNTFINTLFQTVLKRADGQQHRQEPIRKTVEIDITRALLEEKHFELRVNVIDTPGFGDNVNNNKAWQPLVDFIDDQHDSYMRQEQQPYRTKKFDLRVHAVLYFIRPTGHGLKPIDIETMKRLSTRANLIPVIAKADTLTAQELQQFKSRIRQVIEAQEIRIFTPPLDADSKEDAKSGSNPDSAAVEHARQLIEAMPFAIVGSEKKFDNGQGTQVVARKYPWGLVEIENDSHCDFRKLRALLLRTYLLDLISTTQEMHYETYRRLRLEGHENTGEGNEDFTLPAIAPARKLSHNPRYKEEENALKKYFTDQVKAEEQRFRQWEQNIVNERIRLNGDLEEIQGKVKKLEEQVKSLQVKKSHLK

Key:
[1] = molecular target: His6Cdc12–Cdc3–Cdc10–Cdc11 complex (Saccharomyces cerevisiae, UniProt P25342+P32468); assay: binding of α[…]GTP to complex on Ni2+-NTA beads; conditions: labelled compound
Cdc12-His6 [2] = molecular target: T1, Cdc12-His6 (Saccharomyces cerevisiae, UniProt P32468); assay: GTPase, phosphate release from γ[…]GTP; type: biochemical; conditions: labelled compound
T1 sequence (P32468 1-407): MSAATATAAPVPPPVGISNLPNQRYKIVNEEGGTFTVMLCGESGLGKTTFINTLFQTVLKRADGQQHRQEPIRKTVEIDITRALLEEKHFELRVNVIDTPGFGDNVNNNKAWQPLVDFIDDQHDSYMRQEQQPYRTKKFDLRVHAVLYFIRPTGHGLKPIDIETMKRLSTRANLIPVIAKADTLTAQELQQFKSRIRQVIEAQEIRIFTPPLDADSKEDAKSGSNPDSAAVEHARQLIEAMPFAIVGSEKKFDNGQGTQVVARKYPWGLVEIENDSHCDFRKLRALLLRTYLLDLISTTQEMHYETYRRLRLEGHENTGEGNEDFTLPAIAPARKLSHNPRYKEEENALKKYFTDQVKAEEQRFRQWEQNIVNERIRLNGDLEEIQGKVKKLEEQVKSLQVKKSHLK

Cdc10 = molecular target: T2, Cdc10 (Saccharomyces cerevisiae, UniProt P25342); assay: GTPase, phosphate release from γ[…]GTP; type: biochemical; conditions: labelled compound
T2 sequence (P25342 1-322): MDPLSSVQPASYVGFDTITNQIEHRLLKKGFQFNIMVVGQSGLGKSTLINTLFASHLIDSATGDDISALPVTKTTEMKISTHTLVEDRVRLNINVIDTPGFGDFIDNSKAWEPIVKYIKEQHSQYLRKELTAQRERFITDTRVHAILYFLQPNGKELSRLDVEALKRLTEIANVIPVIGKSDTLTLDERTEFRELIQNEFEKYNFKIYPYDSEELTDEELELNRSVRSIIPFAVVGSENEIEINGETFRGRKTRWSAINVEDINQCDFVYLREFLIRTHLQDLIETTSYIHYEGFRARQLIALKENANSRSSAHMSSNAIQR

[3] = molecular target: T3, Cdc12ΔC-His6 (Cdc12(Δ339–407)-His6) (Saccharomyces cerevisiae, UniProt P32468); assay: filter binding of radiolabelled GTPγS; conditions: labelled compound
T3 sequence (P32468 1-338): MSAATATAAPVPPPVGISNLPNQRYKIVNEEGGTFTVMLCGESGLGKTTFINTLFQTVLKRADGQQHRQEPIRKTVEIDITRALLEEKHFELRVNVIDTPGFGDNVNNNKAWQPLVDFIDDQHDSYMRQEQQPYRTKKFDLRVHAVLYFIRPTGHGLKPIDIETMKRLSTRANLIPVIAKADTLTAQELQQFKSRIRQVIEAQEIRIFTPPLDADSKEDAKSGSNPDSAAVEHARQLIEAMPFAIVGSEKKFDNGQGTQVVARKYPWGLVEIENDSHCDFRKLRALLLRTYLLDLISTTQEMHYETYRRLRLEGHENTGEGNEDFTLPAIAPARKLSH

Cdc12-His6 [4] = molecular target: T1, Cdc12-His6; assay: filter binding of radiolabelled GTPγS; conditions: labelled compound
GST-Cdc3 [5] = molecular target: T4, GST-Cdc3 (S. cerevisiae, UniProt P32457 1-520); assay: pull-down
T4 sequence: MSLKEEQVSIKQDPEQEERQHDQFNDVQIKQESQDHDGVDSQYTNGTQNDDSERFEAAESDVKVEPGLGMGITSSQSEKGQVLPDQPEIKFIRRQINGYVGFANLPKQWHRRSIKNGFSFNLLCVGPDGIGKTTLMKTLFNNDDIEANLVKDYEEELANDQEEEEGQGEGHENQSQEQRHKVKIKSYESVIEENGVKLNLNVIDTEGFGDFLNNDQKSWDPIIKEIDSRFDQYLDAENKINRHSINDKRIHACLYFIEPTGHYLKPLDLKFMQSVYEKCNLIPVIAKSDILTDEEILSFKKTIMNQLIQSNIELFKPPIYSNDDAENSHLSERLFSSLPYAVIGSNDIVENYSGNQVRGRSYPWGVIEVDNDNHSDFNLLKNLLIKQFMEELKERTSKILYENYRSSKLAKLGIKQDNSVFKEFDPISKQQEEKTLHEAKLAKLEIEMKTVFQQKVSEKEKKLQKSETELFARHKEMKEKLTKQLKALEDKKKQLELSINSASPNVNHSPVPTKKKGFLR

GST-Cdc11 [6] = molecular target: T5, GST-Cdc11 (S. cerevisiae, UniProt P32458 1-415); assay: pull-down
T5 sequence: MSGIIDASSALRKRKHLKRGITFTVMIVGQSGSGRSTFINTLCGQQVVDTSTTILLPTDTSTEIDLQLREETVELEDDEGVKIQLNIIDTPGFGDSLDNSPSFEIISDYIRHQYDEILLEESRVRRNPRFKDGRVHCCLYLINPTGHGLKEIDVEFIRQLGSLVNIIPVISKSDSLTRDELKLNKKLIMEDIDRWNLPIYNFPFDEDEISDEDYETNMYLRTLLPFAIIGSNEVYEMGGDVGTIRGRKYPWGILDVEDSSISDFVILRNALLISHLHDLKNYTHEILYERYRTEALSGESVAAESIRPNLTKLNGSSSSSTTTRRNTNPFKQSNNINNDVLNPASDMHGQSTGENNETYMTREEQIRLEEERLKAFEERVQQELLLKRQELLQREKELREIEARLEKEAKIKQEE

GST-HSL1(833-1518) = molecular target: T6, GST-HSL1(833-1518) (S. cerevisiae, UniProt P34244 833-1518); assay: pull-down
T6 sequence: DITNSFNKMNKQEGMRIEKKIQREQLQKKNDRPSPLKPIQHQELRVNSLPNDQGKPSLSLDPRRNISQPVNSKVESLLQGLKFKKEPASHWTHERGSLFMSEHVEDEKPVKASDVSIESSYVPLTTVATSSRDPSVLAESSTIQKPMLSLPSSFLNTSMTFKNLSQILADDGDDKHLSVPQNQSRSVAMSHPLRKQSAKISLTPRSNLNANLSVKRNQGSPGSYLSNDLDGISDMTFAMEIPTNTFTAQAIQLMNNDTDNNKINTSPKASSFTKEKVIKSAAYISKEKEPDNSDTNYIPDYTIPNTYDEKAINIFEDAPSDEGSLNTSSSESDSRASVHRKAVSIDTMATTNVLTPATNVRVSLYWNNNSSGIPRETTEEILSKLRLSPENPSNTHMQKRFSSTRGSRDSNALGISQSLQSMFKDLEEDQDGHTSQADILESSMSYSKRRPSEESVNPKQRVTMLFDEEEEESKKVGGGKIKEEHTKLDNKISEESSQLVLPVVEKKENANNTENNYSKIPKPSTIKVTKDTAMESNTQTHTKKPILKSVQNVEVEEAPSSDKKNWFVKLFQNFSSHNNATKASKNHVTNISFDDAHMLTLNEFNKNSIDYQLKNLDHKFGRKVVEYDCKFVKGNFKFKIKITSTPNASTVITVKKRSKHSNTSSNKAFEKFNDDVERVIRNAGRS

GST-Cdc12 = molecular target: T7, GST-Cdc12 (S. cerevisiae, UniProt P32468 1-407); assay: pull-down
T7 sequence: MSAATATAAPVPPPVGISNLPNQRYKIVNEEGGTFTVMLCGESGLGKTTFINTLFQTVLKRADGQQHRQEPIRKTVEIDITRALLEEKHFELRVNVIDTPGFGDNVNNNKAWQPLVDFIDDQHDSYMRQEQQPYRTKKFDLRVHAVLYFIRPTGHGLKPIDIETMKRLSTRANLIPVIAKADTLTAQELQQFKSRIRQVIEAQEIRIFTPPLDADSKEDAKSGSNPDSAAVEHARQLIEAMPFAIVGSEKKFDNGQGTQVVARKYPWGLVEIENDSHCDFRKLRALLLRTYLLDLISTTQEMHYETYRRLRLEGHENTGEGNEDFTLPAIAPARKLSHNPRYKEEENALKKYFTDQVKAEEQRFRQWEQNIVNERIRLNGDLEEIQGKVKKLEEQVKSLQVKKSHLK

Cdc12-His6 [7] = molecular target: B1; assay: pull-down
Cdc12(T48N)-His6 = molecular target: B3; assay: pull-down
GST-Cdc3 [8] = molecular target: T4, GST-Cdc3; assay: pull-down; remark: listed apart in the source
GST-Cdc11 [9] = molecular target: T5, GST-Cdc11; assay: pull-down; remark: listed apart in the source

Molecule: Nc1nc2c(ncn2[C@@H]2O[C@H](COP(=O)(O)OP(=O)(O)OP(=O)(O)O)[C@@H](O)[C@H]2O)c(=O)[nH]1 [GTP]
binding of α[32P]GTP to complex on Ni2+-NTA beads [1]: GTP binding to the His6Cdc12–Cdc3–Cdc10–Cdc11 complex
GTPase, phosphate release from γ[32P]GTP (Cdc12-His6 [2]): Only Cdc10 and Cdc12 displayed detectable GTPase activity above the background control
GTPase, phosphate release from γ[32P]GTP (Cdc10): Only Cdc10 and Cdc12 displayed detectable GTPase activity above the background control

Molecule: Nc1nc2c(ncn2[C@@H]2O[C@H](COP(=O)(O)OP(=O)(O)OP(O)(O)=S)[C@@H](O)[C@H]2O)c(=O)[nH]1 [GTPγS]
filter binding of radiolabelled GTPγS [3]: Both full-length Cdc12 and Cdc12ΔC formed stable complexes with GTPγS over time
filter binding of radiolabelled GTPγS (Cdc12-His6 [4]): Both full-length Cdc12 and Cdc12ΔC formed stable complexes with GTPγS over time

Molecule: B1
binding result (GST-Cdc3 [5]): binds
binding result (GST-Cdc11 [6]): binds
binding result (GST-HSL1(833-1518)): binds
binding result (GST-Cdc12): binds

binding result (Cdc12-His6 [7]): binds
binding result (Cdc12(T48N)-His6): binds
B2: GST-Cdc10 (natural protein)
chain: MDPLSSVQPASYVGFDTITNQIEHRLLKKGFQFNIMVVGQSGLGKSTLINTLFASHLIDSATGDDISALPVTKTTEMKISTHTLVEDRVRLNINVIDTPGFGDFIDNSKAWEPIVKYIKEQHSQYLRKELTAQRERFITDTRVHAILYFLQPNGKELSRLDVEALKRLTEIANVIPVIGKSDTLTLDERTEFRELIQNEFEKYNFKIYPYDSEELTDEELELNRSVRSIIPFAVVGSENEIEINGETFRGRKTRWSAINVEDINQCDFVYLREFLIRTHLQDLIETTSYIHYEGFRARQLIALKENANSRSSAHMSSNAIQR

Molecule: B3
binding result (GST-HSL1(833-1518)): binds
binding result (GST-Cdc12): binds
binding result (GST-Cdc3 [8]): binds
binding result (GST-Cdc11 [9]): binds
